Experimental data published in publication PMC12541693.

Assays:
Assay in all cases: potentiometry
Conditions in all cases: 298.2 K; 0.1 M KCl; none (unbuffered, KCl background); metal-free (apo) peptide
Asp10 (position 10, …-) = molecular target: Asp10 (position 10, …-)
[1] = molecular target: Lys13 (position 13, MVDAYKG----)
[2] = molecular target: Tyr12 (position 12, VMVDAYKG---)
[3] = molecular target: Tyr13 (position 13, VMVDAYKG---)
[4] = molecular target: Lys14 (position 14, MVDAYKG----)
Asp11 (position 11, …-) = molecular target: Asp11 (position 11, …-)

Protein | pKa (Asp10 (position 10, …-)) | pKa [1] | pKa [2] | pKa [3] | pKa [4] | pKa (Asp11 (position 11, …-))
GWHHQIVMVDAYKG [Pep1 (bis-histidyl minimal SpyTag peptide) (synthetic construct (SpyTag-derived))] | 3.65(4) | 10.10(9) | 9.51(7) | – | – | –
GWHHAQIVMVDAYKG [Pep2 (bis-histidyl minimal SpyTag peptide with Ala spacer) (synthetic construct (SpyTag-derived))] | – | – | – | 9.7(1) | 10.16(5) | 3.67(5)
